Assay results from article PMC5079630 (2016).

T1: STAT1 N domain (aminoterminal domain), recombinant
T1 chain: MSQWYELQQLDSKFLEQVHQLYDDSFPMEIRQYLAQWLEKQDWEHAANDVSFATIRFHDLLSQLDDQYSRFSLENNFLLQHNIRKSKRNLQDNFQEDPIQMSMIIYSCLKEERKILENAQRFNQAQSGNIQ


Assays:
Assay in all cases: AUC
[1] = biological target: STAT2 N domain (aminoterminal domain), recombinant, mEGFP-tagged (human)
[2] = biological target: T1, STAT1 N domain (aminoterminal domain), …
[3] = biological target: STAT2 N domain LL81,82AA, recombinant (human)
Chain of STAT2 N domain LL81,82AA, recombinant (human) (chain, as listed by the source): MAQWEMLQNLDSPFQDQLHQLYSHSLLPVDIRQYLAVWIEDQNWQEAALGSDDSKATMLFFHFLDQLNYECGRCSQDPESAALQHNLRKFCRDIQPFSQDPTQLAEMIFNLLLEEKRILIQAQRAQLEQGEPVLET

Chain of STAT2 N domain (aminoterminal domain), recombinant, mEGFP-tagged (human) (chain, as listed by the source): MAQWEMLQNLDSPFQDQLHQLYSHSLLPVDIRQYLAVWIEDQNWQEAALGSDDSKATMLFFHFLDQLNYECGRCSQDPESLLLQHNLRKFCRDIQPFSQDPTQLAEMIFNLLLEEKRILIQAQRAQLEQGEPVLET

Row | Binder | Kd [1] | other results
1 | STAT1 N domain (aminoterminal domain), recombinant (domain or fragment, limits not printed (S1 Text/ref. 22); N domain taken up to the start of the conventional STAT1 core fragment (132-713); Strep-tag omitted limits not printed (S1 Text/ref. 22); N domain taken up to the start of the conventional STAT1 core fragment (132-713); Strep-tag omitted) MSQWYELQQLDSKFLEQVHQLYDDSFPMEIRQYLAQWLEKQDWEHAANDVSFATIRFHDLLSQLDDQYSRFSLENNFLLQHNIRKSKRNLQDNFQEDPIQMSMIIYSCLKEERKILENAQRFNQAQSGNIQ | – | Kd [2]: 16.6 µM
2 | STAT1 N domain (aminoterminal domain), recombinant (domain or fragment, limits not printed (S1 Text/ref. 22); N domain taken up to the start of the conventional STAT1 core fragment (132-713); Strep-tag omitted limits not given; same convention as m2; tags omitted) MSQWYELQQLDSKFLEQVHQLYDDSFPMEIRQYLAQWLEKQDWEHAANDVSFATIRFHDLLSQLDDQYSRFSLENNFLLQHNIRKSKRNLQDNFQEDPIQMSMIIYSCLKEERKILENAQRFNQAQSGNIQ | – | Kd [3]: 5500 µM

Continued, in another order:

Row | Kd [1] | Binder | other results
3 | < 0.01 µM | STAT1 N domain (aminoterminal domain), recombinant (domain or fragment, limits not printed (S1 Text/ref. 22); N domain taken up to the start of the conventional STAT1 core fragment (132-713); Strep-tag omitted limits not given; N domain taken up to the start of the core region (P52630 region from 138), homologous to STAT1 1-131; mEGFP and Strep-tag omitted) MSQWYELQQLDSKFLEQVHQLYDDSFPMEIRQYLAQWLEKQDWEHAANDVSFATIRFHDLLSQLDDQYSRFSLENNFLLQHNIRKSKRNLQDNFQEDPIQMSMIIYSCLKEERKILENAQRFNQAQSGNIQ | –
4 | 705 µM | STAT2 N domain (aminoterminal domain), recombinant, mEGFP-tagged (domain or fragment, limits not given; N domain taken up to the start of the core region (P52630 region from 138), homologous to STAT1 1-131; mEGFP and Strep-tag omitted limits not given; N domain taken up to the start of the core region (P52630 region from 138), homologous to STAT1 1-131; mEGFP and Strep-tag omitted) not shown | –
